Here are results for two substances from publication PMC9059122.

In assay [1] the target is human melanocortin-1 receptor (human) (UniProt Q01726).
The target in assay [2] is human melanocortin-3 receptor (human) (UniProt P41968).
The target of assay [3] is human melanocortin-5 receptor (human) (UniProt P33032).
Sequence of human melanocortin-5 receptor (human) (P33032 whole entry): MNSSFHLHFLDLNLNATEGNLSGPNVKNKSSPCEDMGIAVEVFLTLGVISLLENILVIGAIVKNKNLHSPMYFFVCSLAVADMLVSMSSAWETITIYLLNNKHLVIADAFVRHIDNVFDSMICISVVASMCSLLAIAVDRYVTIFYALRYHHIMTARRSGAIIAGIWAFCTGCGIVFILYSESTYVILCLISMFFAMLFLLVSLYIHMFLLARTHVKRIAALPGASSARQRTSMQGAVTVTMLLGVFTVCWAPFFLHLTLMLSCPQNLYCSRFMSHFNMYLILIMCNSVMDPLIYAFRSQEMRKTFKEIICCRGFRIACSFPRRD

Sequence of human melanocortin-1 receptor (human) (Q01726 whole entry): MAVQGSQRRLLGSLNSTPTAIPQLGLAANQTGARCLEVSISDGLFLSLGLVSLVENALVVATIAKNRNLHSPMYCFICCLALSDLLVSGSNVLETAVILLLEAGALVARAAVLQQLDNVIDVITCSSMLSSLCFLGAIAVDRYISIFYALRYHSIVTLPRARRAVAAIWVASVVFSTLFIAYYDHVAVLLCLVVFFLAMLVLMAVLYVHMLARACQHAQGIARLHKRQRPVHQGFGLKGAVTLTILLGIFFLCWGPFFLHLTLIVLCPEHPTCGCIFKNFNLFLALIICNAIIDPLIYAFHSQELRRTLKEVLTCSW
Sequence of human melanocortin-3 receptor (human) (P41968 whole entry): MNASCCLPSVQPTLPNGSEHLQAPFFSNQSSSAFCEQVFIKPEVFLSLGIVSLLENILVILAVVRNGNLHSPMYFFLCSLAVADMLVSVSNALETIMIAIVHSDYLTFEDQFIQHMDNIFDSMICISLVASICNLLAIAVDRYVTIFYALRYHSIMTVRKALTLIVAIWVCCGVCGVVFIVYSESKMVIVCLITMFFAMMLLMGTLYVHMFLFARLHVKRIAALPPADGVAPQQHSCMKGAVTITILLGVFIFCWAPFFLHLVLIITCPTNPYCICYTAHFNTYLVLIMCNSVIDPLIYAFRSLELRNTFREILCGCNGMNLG

For the substance “analogue 11 (Tyr-Val-Nle-Gly-His-D-Nal(2′)-Arg-Trp-Asp-Arg-Phe-Gly-NH2) (peptide)”, the agonist potency (EC50), cAMP split-luciferase sensor dynamic assay in assay [1] was determined as 0.16 nM; in assay [2], 6.2 nM; in assay [3], 3.8 nM.
Consider “analogue 13 (Tyr-Val-Nle-Gly-Pro-D-Nal(2′)-Arg-Trp-Asp-Arg-Phe-Gly-NH2) (peptide)”, for which the agonist potency (EC50), cAMP split-luciferase sensor dynamic assay in assay [1] came out at 1.2 nM; in assay [3], 4.1 nM.
